Test results taken from publication PMC4793188, “Mechanism and inhibition of human UDP-GlcNAc 2-epimerase, the key enzyme in sialic acid biosynthesis” (Scientific Reports, 2016).

Key:
[1] = molecular target: the molecule itself; assay: SEC; gel filtration of the apo-enzyme; data not shown
[2] = molecular target: the molecule itself; assay: crystal structure; Se-Met protein incubated in 5 mM UDP-GlcNAc and 5 mM CMP-Neu5Ac for 16-18 h at 4 °C; crystals from 0.2 M ammonium acetate, 0.1 M HEPES pH 7.1, 19% PEG 3350; UDP and CMP-Neu5Ac bound; 2.7 Å; space group C2, four monomers in the asymmetric unit

B1: epimerase part of human GNE (UDP-GlcNAc 2-epimerase domain of the bifunctional UDP-GlcNAc 2-epimerase/ManNAc kinase) (domain or fragment)
chain: MEKNGNNRKLRVCVATCNRADYSKLAPIMFGIKTEPEFFELDVVVLGSHLIDDYGNTYRMIEQDDFDINTRLHTIVRGEDEAAMVESVGLALVKLPDVLNRLKPDIMIVHGDRFDALALATSAALMNIRILHIEGGEVSGTIDDSIRHAITKLAHYHVCCTRSAEQHLISMCEDHDRILLAGCPSYDKLLSAKNKDYMSIIRMWLGDDVKSKDYIVALQHPVTTDIKHSIKMFELTLDALISFNKRTLVLFPNIDAGSKEMVRVMRKKGIEHHPNFRAVKHVPFDQFIQLVAHAGCMIGNSSCGVREVGAFGTPVINLGTRQIGRETGENVLHVRDADTQDKILQALHLQFGKQYPCSKIYGDGNAVPRILKFLKSIDLQEPLQKKFCFPPVKENISQDIDHILE
modifications: selenomethionine (Se-Met enriched protein, used for the crystal structure)
notes: UDP-GlcNAc 2-epimerase domain (N-terminal epimerase part, ~400 aa) of human bifunctional UDP-GlcNAc 2-epimerase/ManNAc kinase (GNE, ~720 aa); Cloned into pET21a(+); dimer as apo-enzyme by gel filtration; also called 2-epimerase domain of GNE; recombinant human UDP-GlcNAc 2-epimerase; source: E. coli BL21 (DE3), purified (Ni-NTA, Superdex-200)
[1]
  stoichiometry N: 2
[2]
  stoichiometry N: 4
